US5302370A, “Chelating agents for forming complexes with radioactive isotopes, metal complexes thereof and use thereof in diagnosis and therapy” (Institut fur Diagnostikforschung GmbH, priority 1989, dated 1994)

Legend:
[1] = tested on: MX-1 human carcinoma (control, antigen not expressed); test: Bio-distribution of a protein-bonded Tc-99m complex in hairless mice: antigen-negative MX-1 control tumour; assay type: in vivo, human carcinoma in immune-deficient hairless mice; conditions: MX-1 tumour (300-800 mg); 24 hours after i.v. 20 μg conjugate labelled with 200 μCi
Method: (§1) The monoclonal antibody 17-1A was obtained by methods known in the literature, after application of 10^7 of the corresponding hybridoma cells to the abdominal cavity of a Balb/c-mouse and suction of the ascites fluid after 7-10 days. Purification was brough about likewise by methods known in the literature, by ammonium sulphate precipitation and affinity chromatography over protein A-sepharose. The purified antibody (10 mg/ml) was treated with 25 μg/ml pepsin at pH 3.5 for 2 hours and then isolated by FPLC. Before coupling to the chelating agent, the fragments were dialysed against 0.1M KH2 PO4 /0.1M NaHCO3, pH 8.5, at 4° C. for 12-24 hours. The protein concentration was adjusted to 10 mg/ml. A 5-fold molar excess of the NCS-containing chelating agent [Example 1] was dissolved in a minimum amount of the same buffer and added to the protein solution. […]
(§2) The bio-distribution of protein-bonded chelates will be described, using a conjugate of F(ab)2 fragments of the monoclonal antibody 17-1A and the compound [7] prepared in Example 1 as a model. […] The immune reactivity of the conjugates was 70-80% as determined by bonding to an excess of antigen in the cell. The bio-distribution 24 hours after administration of the conjugate was determined by killing the animals, removing the organs and measuring the radioactivity therein.

[2] = tested on: HT-29 human carcinoma (antigen-positive tumour); test: Bio-distribution of a protein-bonded Tc-99m complex in hairless mice: antigen-positive HT-29 tumour; assay type: in vivo, human carcinoma in immune-deficient hairless mice
Method: as §1, §2

[3] = tested on: antigen expressed from the human carcinoma cell line "HT-29"; test: Immune reactivity of the conjugates by bonding to an excess of antigen in the cell; assay type: binding; conditions: after gel filtration on PD 10
Method: (§3) The bio-distribution of protein-bonded chelates will be described, using a conjugate of F(ab)2 fragments of the monoclonal antibody 17-1A and the compound [7] prepared in Example 1 as a model. The antibody from which the fragments were obtained recognise an antigen expressed from the human carcinoma cell line "HT-29". […] Isolated cells from both lines were subcutaneously administered to immune-deficient hairless mice. After the tumours had grown to a size of 300-800 mg, the mice were intravenously given 20 μg of the chelate conjugate [Example 17] labelled with 200 μCi. The conjugates were first freed from low-molecular constituents by gel filtration on PD 10 columns manufactured by Messrs. Bio-Rad. The immune reactivity of the conjugates was 70-80% as determined by bonding to an excess of antigen in the cell. The bio-distribution 24 hours after administration of the conjugate was determined by killing the animals, removing the organs and measuring the radioactivity therein.

[4] = Bio-distribution of a protein-bonded Tc-99m complex in tumour-bearing hairless mice: organs; assay type: in vivo, immune-deficient hairless mice; conditions: 24 hours after i.v. 20 μg conjugate labelled with 200 μCi
Method: The monoclonal antibody 17-1A was obtained by methods known in the literature, after application of 10^7 of the corresponding hybridoma cells to the abdominal cavity of a Balb/c-mouse and suction of the ascites fluid after 7-10 days. Purification was brough about likewise by methods known in the literature, by ammonium sulphate precipitation and affinity chromatography over protein A-sepharose. The purified antibody (10 mg/ml) was treated with 25 μg/ml pepsin at pH 3.5 for 2 hours and then isolated by FPLC. Before coupling to the chelating agent, the fragments were dialysed against 0.1M KH2 PO4 /0.1M NaHCO3, pH 8.5, at 4° C. for 12-24 hours. The protein concentration was adjusted to 10 mg/ml. A 5-fold molar excess of the NCS-containing chelating agent [Example 1] was dissolved in a minimum amount of the same buffer and added to the protein solution. In order to form the conjugate, the mixture was incubated at 37° C. for 3 hours. Next, the conjugate was dialysed 24-48 hours against PBS (phosphate-buffered saline) with repeated change of buffer, and the protein concentration was re-adjusted to 10 mg/ml when necessary. Before labelling with Tc-99m, the conjugate could be kept in acid-cleaned glass vessels after sterile filtration at 4° C.
1 mg of the antibody fragment coupled to the chelating agent was labelled with TC-99m by adding 10 mCi pertechnetate solution (=1-2 ml) and 100 μg tin-II chloride in a solution of Na pyrophosphate (1 mg/ml) scavenged with argon or by ligand exchange e.g. by mixing the solution with a commercially obtainable glucoheptonate kit to which pertechnetate had been added.
as §3

B1: conjugate of F(ab)2 fragments of the monoclonal antibody 17-1A and the compound [7]: conjugate of F(ab)2 fragments of the monoclonal antibody 17-1A and the compound [7] prepared in Example 1, … (conjugate, chains of the INN, looked up)
VH: QVQLQQSGAELVRPGTSVKVSCKASGYAFTNYLIEWVKQRPGQGLEWIGVINPGSGGTNYNEKFKGKATLTADKSSSTAYMQLSSLTSDDSAVYFCARDGPWFAYWGQGTLVTVSA
VL: NIVMTQSPKSMSMSVGERVTLTCKASENVVTYVSWYQQKPEQSPKLLIYGASNRYTGVPDRFTGSGSATDFTLTISSVQAEDLADYHCGQGYSYPYTFGGGTKLEIK
modifications: F(ab')2 chelate compound [7], Tc-99m label
% of applied dose per gram of tissue, MX-1 [1]: 1.8 % of applied dose per gram of tissue | concentration of the chelate in the antigen-positive tumour ([2]; 24 hours after i.v. administration): marked concentration of the chelate in the antigen-positive tumour | % of applied dose per gram of tissue, HT29 ([2]; HT29 tumour (300-800 mg), 24 hours after i.v. 20 μg conjugate labelled with 200 μCi): 12.1 % of applied dose per gram of tissue | immune reactivity of the conjugates [3]: 70-80% | % of applied dose per gram of tissue, Blood ([4]; blood): 0.6 % of applied dose per gram of tissue | % of applied dose per gram of tissue, Kidneys ([4]; kidneys): 2.8 % of applied dose per gram of tissue | % of applied dose per gram of tissue, Liver ([4]; liver): 1.2 % of applied dose per gram of tissue | % of applied dose per gram of tissue, Lung ([4]; lung): 0.8 % of applied dose per gram of tissue | % of applied dose per gram of tissue, Muscle ([4]; muscle): 0.1 % of applied dose per gram of tissue | % of applied dose per gram of tissue, Spleen ([4]; spleen): 0.3 % of applied dose per gram of tissue
